Results as given in patent US20250059275A1 (SHANGHAI NIGENE BIOLOGICAL SCIENCE AND TECHNOLOGY, published 2025).

T1: human TIGIT expressed on CHO-K1 cells (CHO-huTIGIT) (human, UniProt Q495A1 22-244)
T1 construct: whole, on cells; also called CHO-huTIGIT-eGFP; human TIGIT-expressing CHO cells
T1 sequence (looked up): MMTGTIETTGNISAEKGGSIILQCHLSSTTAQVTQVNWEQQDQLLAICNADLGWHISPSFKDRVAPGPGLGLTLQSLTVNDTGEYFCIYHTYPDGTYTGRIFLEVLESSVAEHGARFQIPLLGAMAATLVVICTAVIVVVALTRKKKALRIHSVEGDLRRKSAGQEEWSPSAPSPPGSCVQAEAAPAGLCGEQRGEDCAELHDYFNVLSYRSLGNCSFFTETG

T2: human TIGIT-HIS (Biointron, BI120) (human, UniProt Q495A1 22-141, limits assumed)
T2 construct: also called recombinant huTIGIT protein; recombinant human TIGIT protein; not shown: His tag
T2 sequence (looked up): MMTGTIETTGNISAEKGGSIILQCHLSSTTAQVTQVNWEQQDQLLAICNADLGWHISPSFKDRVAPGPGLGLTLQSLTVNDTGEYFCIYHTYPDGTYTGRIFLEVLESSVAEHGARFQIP


Key:
[1] = target: T3, cynomolgus monkey TIGIT expressed on CHO-K1 cells (CHO-mkTIGIT) (cynomolgus monkey, UniProt A0A7N9I9V4 89-312); assay: flow cytometry on CHO-mkTIGIT cells, anti-human IgG Fc Alexa Fluor 594
T3 construct: whole, on cells
Method: (§1) CHO-huTIGIT cells or CHO-mkTIGIT cells were implanted in 96 well plates. The antibodies of Example 2 were diluted to different concentrations respectively and added to 96 well plates covered with cells (100 μL/well), incubated at 4° C. (on ice) for 1 hour.
(§2) Washed the cells by adding 200 μL/well washing buffer, and centrifuged at 1600 rpm (˜260×g), 4° C. for 3 minutes, and discarded the supernatant, repeated twice. Add 30 μL washing buffer containing anti-human IgG secondary antibody (Jackson ImmunoResearch, #109-585-190, Alexa Fluor® 594 AffiniPure Goat Anti-Human IgG, Fcγ fragment specific) to each well, cultured cells at 4° C. (on ice) for 1 hour. Washing twice, transferred the cells to a flat bottom 96 well plate, and analyze the cells with CytoFLEX S. The antibody concentration was plotted with the logarithm of 10 as the abscissa and the median fluorescence value of two channels as the ordinate. The EC₅₀ (CHO-huTIGIT and CHO-mkTIGIT) and the peak value of the curve were compared.

[2] = target: T1, human TIGIT expressed on CHO-K1 cells …; assay: flow cytometry competition on CHO-huTIGIT-eGFP cells; competitor biotinylated human CD155-Fc
Method: (§3) CHO-huTIGIT-eGFP cells were implanted in V-bottom 96 well plates. The antibodies of Example 2 and reference antibodies were diluted to different concentrations respectively and added (100 μL/well) to the 96 well plate covered with cells (100%)), incubated at 4° C. for 1 hour.
(§4) Washed the cells by adding 200 μL/well washing buffer, and centrifuged at 1600 rpm (˜260×g), 4° C. for 3 minutes, and discarded the supernatant, repeated twice. […] (on ice) for 1 hour. Add 30 μL washing buffer contains streptavidin-594 (f.c.=10 μg/ml) into the well, then the cells were incubated at 4° C. for 30 minutes. Wash once and transfer the cells to a flat bottom 96 well plate, and analyze the cells with CytoFLEX S. Take the logarithm of antibody concentration (μg/mL) with the base of 10 as the abscissa and the intermediate fluorescence value corresponding to each antibody concentration as the ordinate.

[3] = target: T1, human TIGIT expressed on CHO-K1 cells …; assay: flow cytometry blocking assay on CHO-huTIGIT-eGFP cells; blocked ligand: biotinylated human CD155-Fc
Method: as §3, §4

[4] = target: T1, human TIGIT expressed on CHO-K1 cells …; assay: flow cytometry on CHO-huTIGIT cells, anti-human IgG Fc Alexa Fluor 594
Method: as §1, §2

[5] = target: T3, cynomolgus monkey TIGIT expressed on …; assay: flow cytometry on CHO-mkTIGIT cells, anti-human IgG secondary antibody
Method: as §1, §2

[6] = target: T2, human TIGIT-HIS (Biointron, BI120); assay: Octet BLI tandem epitope competition, TIGIT-HIS loaded on the sensor, first antibody step

T3 sequence (A0A7N9I9V4 entry or part of it): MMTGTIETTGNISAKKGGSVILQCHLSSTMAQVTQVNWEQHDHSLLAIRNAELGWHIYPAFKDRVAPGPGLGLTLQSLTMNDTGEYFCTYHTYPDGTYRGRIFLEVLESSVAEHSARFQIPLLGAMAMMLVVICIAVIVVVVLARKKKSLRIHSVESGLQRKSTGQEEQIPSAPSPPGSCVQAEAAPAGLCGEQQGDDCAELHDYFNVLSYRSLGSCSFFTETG

Row | Binder | EC50 [1] [µg/mL] | IC50 [2] [µg/mL] | IC50 (read off the curve) [3] [µg/mL] | EC50 [4] [µg/mL] | EC50 (read off the curve) [5] [µg/mL] | binding result [6]
1 | JHH4B030a (antibody, V domains shown) VH: QVQLQQSGPGLVKPSQTLSLTCAISGDSVSSNSAAWNWIRQSPSRGLEWLGRTYYRSKWYNDYAVSVKSRITINPDTSKNQFSLQLNSVTPEDTAVYYCARERGTYYDILTGDFDYWGQGTLVTVSS VL: not shown | 0.857 | 0.777 | ~0.8 | 0.0043 | – | –
2 | JHH4B037a (antibody, V domains shown) VH: EVQLVESGGGLVQPGRSLRLSCEASGFSFDDYAMHWVRQAPGKGLEWVSGISWNSVTIGYADSVKGRFTISRDNAKNSLYLEMNSLRTEDTALYYCAKELPTYRYYALDGWGQGTAVTVSS VL: not shown | 0.00532 | 0.79 | ~0.8 | 0.00388 | ~0.005 | –
3 | JHH4D035a (antibody, V domains shown, Fully human antibody from TC-mAb mice) VH: EVQLVESGGGLVQPGRSLRLSCAASGFTFDDFAMHWVRQAPGKGLEWVSGISWNGIGIGYADSVKGRFTISRDNAKNSLYLQMNSLRAEDTALYFCAKDKGLRRYYGMDVWGQGITVIVSS VL: not shown | – | – | – | – | – | binds
4 | JHH4E061a (antibody, V domains shown, Fully human antibody from TC-mAb mice) VH: EVQLVESGGGLIQPGRSLTLSCVASGFTFDDYAMHWVRQAPGKGLEWVSGISWNGIGIGYADSVKGRFTISRDNAKNSLILQMNSLRIEDTALYYCAKDKGLRRYYGMDVWGQGTTVTVSS VL: EIVMTQSPLSLPVTPGEPASISCRSSRSLLHSNGYNYLDWYLQKPGQSPQLLIYLGSNRASGVPDRFSGSGSGTDFTLKINRVEAEDVGVYYCMQALQTPPTFGGGTKVEIK | – | – | – | – | – | binds
5 | JHH4B056a (antibody, V domains shown) VH: EVQLVESGGGLVQPGRSLRLSCAASGFTFDDYAMHWVRQAPGKGLEWVSGISWNGIGIGYADSVKGRFTISRDNAKNSLYLQMNSLRAEDTALYYCAKDGGDYHYYGMDVWGQGTTVTVSS VL: not shown | 0.00958 | 1 | ~1 | 0.00459 | ~0.009 | –
6 | JHH4A063 (antibody, V domains shown, also called 4A063-hIgG1) VH: EVQLVESGGGLVQPGRSLRLSCTASGFNFDDYGMHWVRQAPGKGLEWVSGISWNSISIGSADSVKGRFTISRDNAKNSLYLQMNSLRPEDTALYYCAKDGGDHYYYGMDVWGQGTTVTVSS VL: DIMMTQSPLSLPVTPGEPASISCRSSQSLLHSNGYKYLNWYLQKPGQSPLLLIYLGSNRASGVPDRFSGSGSGTDFTLKISRVEAEDVGVYYCMQALQTPLTFGGGTKVEIK | 0.00425 | 0.559 | ~0.5 | 0.00349 | ~0.004 | –
7 | JHH4A042-H3 (antibody, V domains shown) VH: QVQLQQSGPGLVKPSQTLSLTCAISGDSVSSNSAAWNWIRQSPSRGLEWLGRTYFRSKWYNDYAVSVKSRITINPDTSKNQFSLQLNSMTPEDTAVYYCARERALYDILAGSFDYWGQGTLVTVSS VL: not shown | 0.0792 | 0.8 | ~0.8 | 0.00463 | ~1 | –
8 | JHH4A042-H7 (antibody, V domains shown) VH: QVQLQQSGPGLVKPSQTLSLTCAISGDSVSSNSAVWNWIRQSPSRGLEWLGRTYYRSKWYNDYAVSVKSRITINPDTSKNQFSLQLNSMTPEDTAVYYCARERALYDILAGSFDYWGQGTLVTVSS VL: not shown | 0.605 | 0.973 | ~1 | 0.00602 | – | –
9 | JHH1B2-8C (antibody, V domains shown) VH: QVQLQQSGPGLVKPSQTLSLTCAISGDSVSSNSAAWNWIRQSPSRGLEWLGRTYYRSKWYNDYAVSVKSRITINPDTSKNQFSLQLNSVTPEDTAVYYCAREGVLRYFDWLSGAFDIWGQGTMVTVSS VL: not shown | – | 1.18 | ~1 | 0.00549 | – | –
10 | JHH4A057 (antibody, V domains shown) VH: QVQLVQSGSELKKPGASVKVSCKASGYTLTSHALNWVRQAPGQGLEWMGWINTNTGNPTYVQGFTGRFVFSLDTSVSTAYLQISSLKAEDTAVYYCARGYSSPPRMDVWGQGTTVTVSS VL: EIVLTQSPGTLFLSPGERATLSCRASQSVSRNYLVWYQQKPGQAPRLLIYGASTRATGIPDRFSGSGSGTDFTLTIRRLEPEDFALYYCQQYGSSPFTFGQGTKLEIN | 0.00887 | 0.899 | ~0.9 | 0.00412 | ~0.009 | –
